Sequences and labels used below:
B1: THAP1; numbered along this chain (parent)
chain: MVQSCSAYGCKNRYDKDKPVSFHKFPLTRPSLCKEWEAAVRRKNFKPTKYSSICSEHFTPDCFKRECNNKLLKENAVPTIFLCTEPHDKKEDLLEPQEQLPPPPLPPPVSQVDAAIGLLMPPLQTPVNLSVFCDHNYTVEDTMHQRKRIHQLEQQVEKLRKKLKTAQQRCRRQERQLEKLKEVVHFQKEKDDVSERGYVILPNDYFEIVEVPA

In the series the parent is B1. Description: THAP1 transcriptional activity (GFP+/GFP- enrichment relative to wild-type constructs) (ratio to WT); higher = more THAP1 activity (PSMB5 reporter activation). Particulars: with PSMB5 promoter-GFP reporter. How it is done: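 Deep mutational scan of human THAP1. Site-saturation single amino acid variant library (residues 2-213) was expressed by lentivirus at MOI ~0.3 in THAP1-knockout HEK-293T cells carrying an endogenous PSMB5 promoter-GFP knock-in reporter. Five days post-transduction, BFP+ cells were FACS-sorted into GFP dim and GFP bright populations and variants were counted by Illumina sequencing. Activity is the GFP-bright/GFP-dim read fold change, mean of 2 replicates, divided by the mean fold change of wild-type (synonymous) constructs in the same screen pool; WT = 1.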
For MVQSCSAYGCKNRYDKDKPVSFHKFPLTRPSLCKEWEAAVRRKNFKPTKYSSICSEHQTPDCFKRECNNKLLKENAVPTIFLCTEPHDKKEDLLEPQEQLPPPPLPPPVSQVDAAIGLLMPPLQTPVNLSVFCDHNYTVEDTMHQRKRIHQLEQQVEKLRKKLKTAQQRCRRQERQLEKLKEVVHFQKEKDDVSERGYVILPNDYFEIVEVPA [F58Q], the THAP1 transcriptional activity was 0.0792.
To MVQSCSAYGCKNRYDKDKPVSFHKFPLTRPSLCKEWEAAVRRKNFKPTKYSSICSEHNTPDCFKRECNNKLLKENAVPTIFLCTEPHDKKEDLLEPQEQLPPPPLPPPVSQVDAAIGLLMPPLQTPVNLSVFCDHNYTVEDTMHQRKRIHQLEQQVEKLRKKLKTAQQRCRRQERQLEKLKEVVHFQKEKDDVSERGYVILPNDYFEIVEVPA [F58N] belongs 0.0722.
Under MVQSCSAYGCKNRYDKDKPVSFHKFPLTRPSLCKEWEAAVRRKNFKPTKYSSICSEHCTPDCFKRECNNKLLKENAVPTIFLCTEPHDKKEDLLEPQEQLPPPPLPPPVSQVDAAIGLLMPPLQTPVNLSVFCDHNYTVEDTMHQRKRIHQLEQQVEKLRKKLKTAQQRCRRQERQLEKLKEVVHFQKEKDDVSERGYVILPNDYFEIVEVPA [F58C] stands 0.0689; under MVQSCSAYGCKNRYDKDKPVSFHKFPLTRPSLCKEWEAAVRRKNFKPTKYSSICSEHDTPDCFKRECNNKLLKENAVPTIFLCTEPHDKKEDLLEPQEQLPPPPLPPPVSQVDAAIGLLMPPLQTPVNLSVFCDHNYTVEDTMHQRKRIHQLEQQVEKLRKKLKTAQQRCRRQERQLEKLKEVVHFQKEKDDVSERGYVILPNDYFEIVEVPA [F58D], 0.0836.
To MVQSCSAYGCKNRYDKDKPVSFHKFPLTRPSLCKEWEAAVRRKNFKPTKYSSICSEHPTPDCFKRECNNKLLKENAVPTIFLCTEPHDKKEDLLEPQEQLPPPPLPPPVSQVDAAIGLLMPPLQTPVNLSVFCDHNYTVEDTMHQRKRIHQLEQQVEKLRKKLKTAQQRCRRQERQLEKLKEVVHFQKEKDDVSERGYVILPNDYFEIVEVPA [F58P] belongs 0.0346.
Regarding MVQSCSAYGCKNRYDKDKPVSFHKFPLTRPSLCKEWEAAVRRKNFKPTKYSSICSEHKTPDCFKRECNNKLLKENAVPTIFLCTEPHDKKEDLLEPQEQLPPPPLPPPVSQVDAAIGLLMPPLQTPVNLSVFCDHNYTVEDTMHQRKRIHQLEQQVEKLRKKLKTAQQRCRRQERQLEKLKEVVHFQKEKDDVSERGYVILPNDYFEIVEVPA [F58K], the THAP1 transcriptional activity amounted to 0.0827.
To MVQSCSAYGCKNRYDKDKPVSFHKFPLTRPSLCKEWEAAVRRKNFKPTKYSSICSEHLTPDCFKRECNNKLLKENAVPTIFLCTEPHDKKEDLLEPQEQLPPPPLPPPVSQVDAAIGLLMPPLQTPVNLSVFCDHNYTVEDTMHQRKRIHQLEQQVEKLRKKLKTAQQRCRRQERQLEKLKEVVHFQKEKDDVSERGYVILPNDYFEIVEVPA [F58L] belongs 0.121; to MVQSCSAYGCKNRYDKDKPVSFHKFPLTRPSLCKEWEAAVRRKNFKPTKYSSICSEHGTPDCFKRECNNKLLKENAVPTIFLCTEPHDKKEDLLEPQEQLPPPPLPPPVSQVDAAIGLLMPPLQTPVNLSVFCDHNYTVEDTMHQRKRIHQLEQQVEKLRKKLKTAQQRCRRQERQLEKLKEVVHFQKEKDDVSERGYVILPNDYFEIVEVPA [F58G], 0.064; to MVQSCSAYGCKNRYDKDKPVSFHKFPLTRPSLCKEWEAAVRRKNFKPTKYSSICSEHITPDCFKRECNNKLLKENAVPTIFLCTEPHDKKEDLLEPQEQLPPPPLPPPVSQVDAAIGLLMPPLQTPVNLSVFCDHNYTVEDTMHQRKRIHQLEQQVEKLRKKLKTAQQRCRRQERQLEKLKEVVHFQKEKDDVSERGYVILPNDYFEIVEVPA [F58I], 0.0956.
To MVQSCSAYGCKNRYDKDKPVSFHKFPLTRPSLCKEWEAAVRRKNFKPTKYSSICSEHHTPDCFKRECNNKLLKENAVPTIFLCTEPHDKKEDLLEPQEQLPPPPLPPPVSQVDAAIGLLMPPLQTPVNLSVFCDHNYTVEDTMHQRKRIHQLEQQVEKLRKKLKTAQQRCRRQERQLEKLKEVVHFQKEKDDVSERGYVILPNDYFEIVEVPA [F58H] belongs 0.131.
To MVQSCSAYGCKNRYDKDKPVSFHKFPLTRPSLCKEWEAAVRRKNFKPTKYSSICSEHETPDCFKRECNNKLLKENAVPTIFLCTEPHDKKEDLLEPQEQLPPPPLPPPVSQVDAAIGLLMPPLQTPVNLSVFCDHNYTVEDTMHQRKRIHQLEQQVEKLRKKLKTAQQRCRRQERQLEKLKEVVHFQKEKDDVSERGYVILPNDYFEIVEVPA [F58E] belongs 0.149; to MVQSCSAYGCKNRYDKDKPVSFHKFPLTRPSLCKEWEAAVRRKNFKPTKYSSICSEHATPDCFKRECNNKLLKENAVPTIFLCTEPHDKKEDLLEPQEQLPPPPLPPPVSQVDAAIGLLMPPLQTPVNLSVFCDHNYTVEDTMHQRKRIHQLEQQVEKLRKKLKTAQQRCRRQERQLEKLKEVVHFQKEKDDVSERGYVILPNDYFEIVEVPA [F58A], 0.0948; to MVQSCSAYGCKNRYDKDKPVSFHKFPLTRPSLCKEWEAAVRRKNFKPTKYSSICSEHMTPDCFKRECNNKLLKENAVPTIFLCTEPHDKKEDLLEPQEQLPPPPLPPPVSQVDAAIGLLMPPLQTPVNLSVFCDHNYTVEDTMHQRKRIHQLEQQVEKLRKKLKTAQQRCRRQERQLEKLKEVVHFQKEKDDVSERGYVILPNDYFEIVEVPA [F58M], 0.105.
With MVQSCSAYGCKNRYDKDKPVSFHKFPLTRPSLCKEWEAAVRRKNFKPTKYSSICSERFTPDCFKRECNNKLLKENAVPTIFLCTEPHDKKEDLLEPQEQLPPPPLPPPVSQVDAAIGLLMPPLQTPVNLSVFCDHNYTVEDTMHQRKRIHQLEQQVEKLRKKLKTAQQRCRRQERQLEKLKEVVHFQKEKDDVSERGYVILPNDYFEIVEVPA [H57R], the THAP1 transcriptional activity was 0.183.
Under MVQSCSAYGCKNRYDKDKPVSFHKFPLTRPSLCKEWEAAVRRKNFKPTKYSSICSESFTPDCFKRECNNKLLKENAVPTIFLCTEPHDKKEDLLEPQEQLPPPPLPPPVSQVDAAIGLLMPPLQTPVNLSVFCDHNYTVEDTMHQRKRIHQLEQQVEKLRKKLKTAQQRCRRQERQLEKLKEVVHFQKEKDDVSERGYVILPNDYFEIVEVPA [H57S] stands 0.121.
Consider MVQSCSAYGCKNRYDKDKPVSFHKFPLTRPSLCKEWEAAVRRKNFKPTKYSSICSEKFTPDCFKRECNNKLLKENAVPTIFLCTEPHDKKEDLLEPQEQLPPPPLPPPVSQVDAAIGLLMPPLQTPVNLSVFCDHNYTVEDTMHQRKRIHQLEQQVEKLRKKLKTAQQRCRRQERQLEKLKEVVHFQKEKDDVSERGYVILPNDYFEIVEVPA [H57K], for which the THAP1 transcriptional activity is 0.126.
Under MVQSCSAYGCKNRYDKDKPVSFHKFPLTRPSLCKEWEAAVRRKNFKPTKYSSICSEYFTPDCFKRECNNKLLKENAVPTIFLCTEPHDKKEDLLEPQEQLPPPPLPPPVSQVDAAIGLLMPPLQTPVNLSVFCDHNYTVEDTMHQRKRIHQLEQQVEKLRKKLKTAQQRCRRQERQLEKLKEVVHFQKEKDDVSERGYVILPNDYFEIVEVPA [H57Y] stands 0.115; under MVQSCSAYGCKNRYDKDKPVSFHKFPLTRPSLCKEWEAAVRRKNFKPTKYSSICSEGFTPDCFKRECNNKLLKENAVPTIFLCTEPHDKKEDLLEPQEQLPPPPLPPPVSQVDAAIGLLMPPLQTPVNLSVFCDHNYTVEDTMHQRKRIHQLEQQVEKLRKKLKTAQQRCRRQERQLEKLKEVVHFQKEKDDVSERGYVILPNDYFEIVEVPA [H57G], 0.0681.
For the variant MVQSCSAYGCKNRYDKDKPVSFHKFPLTRPSLCKEWEAAVRRKNFKPTKYSSICSETFTPDCFKRECNNKLLKENAVPTIFLCTEPHDKKEDLLEPQEQLPPPPLPPPVSQVDAAIGLLMPPLQTPVNLSVFCDHNYTVEDTMHQRKRIHQLEQQVEKLRKKLKTAQQRCRRQERQLEKLKEVVHFQKEKDDVSERGYVILPNDYFEIVEVPA [H57T], the THAP1 transcriptional activity turned out to be 0.109.
Under MVQSCSAYGCKNRYDKDKPVSFHKFPLTRPSLCKEWEAAVRRKNFKPTKYSSICSEMFTPDCFKRECNNKLLKENAVPTIFLCTEPHDKKEDLLEPQEQLPPPPLPPPVSQVDAAIGLLMPPLQTPVNLSVFCDHNYTVEDTMHQRKRIHQLEQQVEKLRKKLKTAQQRCRRQERQLEKLKEVVHFQKEKDDVSERGYVILPNDYFEIVEVPA [H57M] stands 0.138; under MVQSCSAYGCKNRYDKDKPVSFHKFPLTRPSLCKEWEAAVRRKNFKPTKYSSICSEQFTPDCFKRECNNKLLKENAVPTIFLCTEPHDKKEDLLEPQEQLPPPPLPPPVSQVDAAIGLLMPPLQTPVNLSVFCDHNYTVEDTMHQRKRIHQLEQQVEKLRKKLKTAQQRCRRQERQLEKLKEVVHFQKEKDDVSERGYVILPNDYFEIVEVPA [H57Q], 0.0983.
For MVQSCSAYGCKNRYDKDKPVSFHKFPLTRPSLCKEWEAAVRRKNFKPTKYSSICSEPFTPDCFKRECNNKLLKENAVPTIFLCTEPHDKKEDLLEPQEQLPPPPLPPPVSQVDAAIGLLMPPLQTPVNLSVFCDHNYTVEDTMHQRKRIHQLEQQVEKLRKKLKTAQQRCRRQERQLEKLKEVVHFQKEKDDVSERGYVILPNDYFEIVEVPA [H57P], the THAP1 transcriptional activity was determined as 0.0956.
As for MVQSCSAYGCKNRYDKDKPVSFHKFPLTRPSLCKEWEAAVRRKNFKPTKYSSICSEFFTPDCFKRECNNKLLKENAVPTIFLCTEPHDKKEDLLEPQEQLPPPPLPPPVSQVDAAIGLLMPPLQTPVNLSVFCDHNYTVEDTMHQRKRIHQLEQQVEKLRKKLKTAQQRCRRQERQLEKLKEVVHFQKEKDDVSERGYVILPNDYFEIVEVPA [H57F], the THAP1 transcriptional activity was 0.126.
Under MVQSCSAYGCKNRYDKDKPVSFHKFPLTRPSLCKEWEAAVRRKNFKPTKYSSICSELFTPDCFKRECNNKLLKENAVPTIFLCTEPHDKKEDLLEPQEQLPPPPLPPPVSQVDAAIGLLMPPLQTPVNLSVFCDHNYTVEDTMHQRKRIHQLEQQVEKLRKKLKTAQQRCRRQERQLEKLKEVVHFQKEKDDVSERGYVILPNDYFEIVEVPA [H57L] stands 0.107; under MVQSCSAYGCKNRYDKDKPVSFHKFPLTRPSLCKEWEAAVRRKNFKPTKYSSICSEWFTPDCFKRECNNKLLKENAVPTIFLCTEPHDKKEDLLEPQEQLPPPPLPPPVSQVDAAIGLLMPPLQTPVNLSVFCDHNYTVEDTMHQRKRIHQLEQQVEKLRKKLKTAQQRCRRQERQLEKLKEVVHFQKEKDDVSERGYVILPNDYFEIVEVPA [H57W], 0.0852.
To MVQSCSAYGCKNRYDKDKPVSFHKFPLTRPSLCKEWEAAVRRKNFKPTKYSSICSEIFTPDCFKRECNNKLLKENAVPTIFLCTEPHDKKEDLLEPQEQLPPPPLPPPVSQVDAAIGLLMPPLQTPVNLSVFCDHNYTVEDTMHQRKRIHQLEQQVEKLRKKLKTAQQRCRRQERQLEKLKEVVHFQKEKDDVSERGYVILPNDYFEIVEVPA [H57I] belongs 0.102; to MVQSCSAYGCKNRYDKDKPVSFHKFPLTRPSLCKEWEAAVRRKNFKPTKYSSICSEVFTPDCFKRECNNKLLKENAVPTIFLCTEPHDKKEDLLEPQEQLPPPPLPPPVSQVDAAIGLLMPPLQTPVNLSVFCDHNYTVEDTMHQRKRIHQLEQQVEKLRKKLKTAQQRCRRQERQLEKLKEVVHFQKEKDDVSERGYVILPNDYFEIVEVPA [H57V], 0.105.
Under MVQSCSAYGCKNRYDKDKPVSFHKFPLTRPSLCKEWEAAVRRKNFKPTKYSSICSENFTPDCFKRECNNKLLKENAVPTIFLCTEPHDKKEDLLEPQEQLPPPPLPPPVSQVDAAIGLLMPPLQTPVNLSVFCDHNYTVEDTMHQRKRIHQLEQQVEKLRKKLKTAQQRCRRQERQLEKLKEVVHFQKEKDDVSERGYVILPNDYFEIVEVPA [H57N] stands 0.0635.

The record behind these values is the supplement of paper PMC11811203.
